Test results from PMC9427005 (Science (New York, N.y.), 2022).

Target: SARS-CoV-2 Wuhan-Hu-1 RBD for SPR binding assays (SARS-CoV-2 Wuhan-Hu-1 (NC_045512.2), UniProt P0DTC2)
Assay: SPR
Conditions: both partners purified

B1: S2X35 IgG (antibody, V domains shown)
VH: QVQLVQSGAEVKKPGASVKVSCKASGYTFTNYGISWVRQAPGQGLEWMGWISAYKGNTNYAQKLQGRVTMTTDTSTSTAYMELRSLRSDDTAVYYCARPDYQVLGYDFWIGYYGMDVWGQGTTVIVSS
VL: QSVLTQPPSVSGAPGQRVTISCTGSSSNIGAGYDVHWYQQLPGTAPKLLIYGNTNRPSGVPDRFSGSKSGTSASLAITGLQAEDEADYYCQSYDSSLSGSEVVFGGGTKLTVL
B1 was tested, and the Kd was 0.268 nM, the koff was 0.000153 s⁻¹ and the kon was 570000 M⁻¹ s⁻¹.

B2: REGN10933 IgG1 (antibody, V domains shown)
VH: QVQLVESGGGLVKPGGSLRLSCAASGFTFSDYYMSWIRQAPGKGLEWVSYITYSGSTIYYADSVKGRFTISRDNAKSSLYLQMNSLRAEDTAVYYCARDRGTTMVPFDYWGQGTLVTVSS
VL: DIQMTQSPSSLSASVGDRVTITCQASQDITNYLNWYQQKPGKAPKLLIYAASNLETGVPSRFSGSGSGTDFTFTISGLQPEDIATYYCQQYDNLPLTFGGGTKVEIK
notes: IgG1
B2 gave a Kd of 0.689 nM, a koff of 0.00364 s⁻¹ and a kon of 5.29e+06 M⁻¹ s⁻¹.

B3: REGN10987 IgG1 (antibody, V domains shown)
VH: QVQLVESGGGVVQPGRSLRLSCAASGFTFSNYAMYWVRQAPGKGLEWVAVISYDGSNKYYADSVKGRFTISRDNSKNTLYLQMNSLRTEDTAVYYCASGSDYGDYLLVYWGQGTLVTVSS
VL: QSALTQPASVSGSPGQSITISCTGTSSDVGGYNYVSWYQQHPGKAPKLMIYDVSKRPSGVSNRFSGSKSGNTASLTISGLQSEDEADYYCNSLTSISTWVFGGGTKLTVL
notes: IgG1
B3 showed a Kd of 12.4 nM.

B4: LY-CoV016 IgG1 (antibody, V domains shown)
VH: EVQLVESGGGLVQPGGSLRLSCAASGFTVSSNYMSWVRQAPGKGLEWVSVIYSGGSTFYADSVKGRFTISRDNSMNTLFLQMNSLRAEDTAVYYCARVLPMYGDYLDYWGQGTLVTVSS
VL: not shown
notes: IgG1
Work on B4 yielded a Kd of 13.8 nM.

B5: CT-P59 IgG1 (antibody, V domains shown)
VH: QITLKESGPTLVKPTQTLTLTCSFSGFSLSTSGVGVGWIRQPPGKALEWLALIDWDDNKYHTTSLKTRLTISKDTSKNQVVLTMTNMDPVDTATYYCARIPGFLRYRNRYYYYGMDVWGQGTTVTVSS
VL: ELVLTQPPSVSAAPGQKVTISCSGSSSNIGNNYVSWYQQLPGTAPKLLIYDNNKRPSGIPDRFSGSKSGTSATLGITGLQTGDEADYYCGTWDSSLSAGVFGGGTELTVL
notes: IgG1
For B5, the Kd was 0.066 nM, the koff was 0.000365 s⁻¹ and the kon was 5.54e+06 M⁻¹ s⁻¹.

B6: ADI-58125 IgG1 (antibody, V domains shown)
VH: EVQLVESGGGLVKPGGSLRLSCAASGFTFSSYYMNWVRQAPGKGLEWVSSISEDGYSTYYPDSLKGRFTISRDSAKNSLYLQMNSLRADDTAVYYCARDFSGHTAWAGTGFEYWGQGTLVTVSS
VL: QSVLTQPPSVSGAPGQRITISCTGSSSNIGAGYDVHWYQQLPGTAPKLLIYGSSSRNSGVPDRFSGSKSGTSASLAITGLQAEDEADYYCQSYDSSLSVLYTFGTGTKVTVL
notes: IgG1
Binder B6 has a Kd of less than 0.01 nM, a koff of 7.17e-08 s⁻¹ and a kon of 1.15e+06 M⁻¹ s⁻¹.

B7: COV2-2196 IgG1 (antibody, V domains shown)
VH: QMQLVQSGPEVKKPGTSVKVSCKASGFTFMSSAVQWVRQARGQRLEWIGWIVIGSGNTNYAQKFQERVTITRDMSTSTAYMELSSLRSEDTAVYYCAAPYCSSISCNDGFDIWGQGTMVTVSS
VL: not shown
notes: IgG1
B7 gave a Kd of 1.09 nM, a koff of 0.0124 s⁻¹ and a kon of 1.14e+07 M⁻¹ s⁻¹.

B8: LY-CoV555 IgG1 (antibody, V domains shown)
VH: QVQLVQSGAEVKKPGSSVKVSCKASGGTFSNYAISWVRQAPGQGLEWMGRIIPILGIANYAQKFQGRVTITADKSTSTAYMELSSLRSEDTAVYYCARGYYEARHYYYYYAMDVWGQGTAVTVSS
VL: not shown
notes: IgG1
B8 showed a Kd of 1.48 nM, a koff of 0.00117 s⁻¹ and a kon of 792000 M⁻¹ s⁻¹.
